17 molecules from patent US20030068675, “Position dependent recognition of GNN nucleotide triplets by zinc fingers” (published 2003) can be followed below.

Common to all, as to experiment: EMSA
Details in all cases: tags: MBP fusion
(A gel shift assay detects complexes by their altered migration in electrophoresis.)

For one data set, the target named is T1, ZFP SBS#970 (synthetic).
T1 chain: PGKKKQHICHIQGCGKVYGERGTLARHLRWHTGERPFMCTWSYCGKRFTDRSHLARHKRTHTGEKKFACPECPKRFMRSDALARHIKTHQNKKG
A digest of the protocol: (§1)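 Purified ZFP was titrated against labeled double-stranded target (1 nM or lower, at least 10-fold below expected Kd) carrying the natural binding site with flanks. Binding buffer was 10 mM Tris pH 7.5, 100 mM KCl, 1 mM MgCl2, 0.1 mM ZnCl2, 5 mM DTT, 10% glycerol, 0.02% BSA, with equilibration for at least 45 min. Bound and free target were separated on a 10% polyacrylamide gel.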

A further data set deals with T2, ZFP SBS#971 (synthetic).
T2 chain: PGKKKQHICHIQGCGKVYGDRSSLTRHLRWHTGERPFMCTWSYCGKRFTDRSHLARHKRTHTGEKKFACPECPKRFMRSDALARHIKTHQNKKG
In outline:
as §1

The next data set has as its target T3, ZFP SBS#972 (synthetic).
T3 chain: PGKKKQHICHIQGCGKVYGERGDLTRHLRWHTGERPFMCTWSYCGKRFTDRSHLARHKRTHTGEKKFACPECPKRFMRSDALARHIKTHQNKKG
In outline:
as §1

A further data set addresses ZFP SBS#934 (synthetic). A digest of the protocol: as §1
In another data set the target is ZFP SBS#910 (synthetic). In outline: as §1
ZFP SBS#910 (synthetic), sequence (chain, as listed by the source): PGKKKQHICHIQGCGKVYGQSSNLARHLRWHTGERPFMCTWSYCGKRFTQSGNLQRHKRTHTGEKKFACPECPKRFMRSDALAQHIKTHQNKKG
The target of another data set is ZFP SBS#935 (synthetic). A digest of the protocol: as §1
In a further data set the target is ZFP SBS#911 (synthetic). A digest of the protocol:
as §1

The next data set concerns the target ZFP SBS#931 (synthetic). A digest of the protocol:
as §1

For another data set, the target named is T4, ZFP SBS#435 (synthetic).
T4 chain: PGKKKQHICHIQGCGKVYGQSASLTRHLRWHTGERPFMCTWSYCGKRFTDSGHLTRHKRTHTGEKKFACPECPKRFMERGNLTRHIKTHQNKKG
A digest of the protocol: as §1

The target of a further data set is T5, ZFP SBS#434 (synthetic).
T5 chain: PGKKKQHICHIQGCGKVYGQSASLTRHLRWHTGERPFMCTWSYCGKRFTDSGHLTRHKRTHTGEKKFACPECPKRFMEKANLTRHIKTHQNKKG
In outline: as §1

The target in another data set is ZFP SBS#437 (synthetic). A digest of the protocol: as §1
ZFP SBS#437 (synthetic), sequence (chain, as listed by the source): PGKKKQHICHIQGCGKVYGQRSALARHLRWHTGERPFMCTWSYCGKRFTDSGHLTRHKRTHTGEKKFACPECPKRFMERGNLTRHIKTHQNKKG
For the next data set, the target named is ZFP SBS#436 (synthetic). In outline:
as §1

The next data set concerns the target T6, ZFP SBS#932 (synthetic).
T6 chain: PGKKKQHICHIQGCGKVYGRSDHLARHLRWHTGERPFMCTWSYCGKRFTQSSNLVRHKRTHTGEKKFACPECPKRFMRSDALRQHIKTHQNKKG
In outline:
as §1

A further data set deals with ZFP SBS#903 (synthetic). In outline: as §1
ZFP SBS#903 (synthetic), sequence (chain, as listed by the source): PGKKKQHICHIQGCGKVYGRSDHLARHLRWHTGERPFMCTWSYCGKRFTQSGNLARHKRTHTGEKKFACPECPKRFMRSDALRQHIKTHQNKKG
The target in the next data set is T7, ZFP SBS#978 (synthetic).
T7 chain: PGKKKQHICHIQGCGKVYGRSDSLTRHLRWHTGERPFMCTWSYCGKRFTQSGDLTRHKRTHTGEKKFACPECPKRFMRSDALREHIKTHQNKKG
In outline: as §1

The target in another data set is T8, ZFP SBS#977 (synthetic).
T8 chain: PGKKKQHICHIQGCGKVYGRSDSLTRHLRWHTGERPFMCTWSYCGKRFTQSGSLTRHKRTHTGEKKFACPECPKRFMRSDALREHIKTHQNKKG
In outline: as §1

A further data set has as its target T9, ZFP SBS#929 (synthetic).
T9 chain: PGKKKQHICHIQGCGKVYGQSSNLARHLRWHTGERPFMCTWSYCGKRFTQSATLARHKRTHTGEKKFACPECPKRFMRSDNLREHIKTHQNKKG
A digest of the protocol: as §1

The target of a further data set is T10, ZFP SBS#968 (synthetic).
T10 chain: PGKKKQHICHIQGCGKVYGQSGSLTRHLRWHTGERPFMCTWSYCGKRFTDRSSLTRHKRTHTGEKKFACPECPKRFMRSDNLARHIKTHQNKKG
In outline: as §1

For a further data set, the target named is T11, ZFP SBS#969 (synthetic).
T11 chain: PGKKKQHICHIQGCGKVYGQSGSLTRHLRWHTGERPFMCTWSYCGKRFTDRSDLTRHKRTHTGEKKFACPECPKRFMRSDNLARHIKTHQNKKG
A digest of the protocol:
as §1

Another data set addresses T12, ZFP SBS#933 (synthetic).
T12 chain: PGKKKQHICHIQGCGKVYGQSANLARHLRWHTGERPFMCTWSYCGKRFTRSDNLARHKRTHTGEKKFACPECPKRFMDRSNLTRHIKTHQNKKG
In outline: as §1

The target in a further data set is ZFP SBS#976 (synthetic). A digest of the protocol: as §1
ZFP SBS#976 (synthetic), sequence (chain, as listed by the source): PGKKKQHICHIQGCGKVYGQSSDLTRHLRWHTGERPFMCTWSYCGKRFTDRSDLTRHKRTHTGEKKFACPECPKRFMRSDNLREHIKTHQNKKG
The target in the next data set is T13, ZFP SBS#975 (synthetic).
T13 chain: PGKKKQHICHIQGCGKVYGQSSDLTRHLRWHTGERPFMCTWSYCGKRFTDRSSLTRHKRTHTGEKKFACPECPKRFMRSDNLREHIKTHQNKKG
A digest of the protocol:
as §1

A further data set concerns the target T14, ZFP SBS#928 (synthetic).
T14 chain: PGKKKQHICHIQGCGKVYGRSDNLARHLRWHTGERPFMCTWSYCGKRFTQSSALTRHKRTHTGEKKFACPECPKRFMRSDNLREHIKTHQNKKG
In outline: as §1

Another data set has as its target T15, ZFP SBS#927 (synthetic).
T15 chain: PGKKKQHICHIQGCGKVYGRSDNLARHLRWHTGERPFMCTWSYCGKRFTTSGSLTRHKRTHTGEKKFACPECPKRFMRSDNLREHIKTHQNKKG
In outline:
as §1

A further data set has as its target ZFP SBS#962 (synthetic, UniProt P08047). A digest of the protocol:
as §1

The next data set has as its target ZFP SBS#963 (synthetic). In outline:
as §1

For another data set, the target named is T16, ZFP SBS#946 (synthetic).
T16 chain: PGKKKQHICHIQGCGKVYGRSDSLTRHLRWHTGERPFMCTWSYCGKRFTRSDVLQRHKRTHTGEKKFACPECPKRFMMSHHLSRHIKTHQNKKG
A digest of the protocol:
as §1

The next data set deals with T17, ZFP SBS#945 (synthetic).
T17 chain: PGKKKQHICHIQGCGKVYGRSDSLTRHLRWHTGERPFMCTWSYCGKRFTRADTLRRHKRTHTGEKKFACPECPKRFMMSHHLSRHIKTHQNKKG
A digest of the protocol: as §1

A further data set has as its target ZFP SBS#948 (synthetic). In outline: as §1
Another data set deals with ZFP SBS#947 (synthetic). A digest of the protocol: as §1
ZFP SBS#947 (synthetic), sequence (chain, as listed by the source): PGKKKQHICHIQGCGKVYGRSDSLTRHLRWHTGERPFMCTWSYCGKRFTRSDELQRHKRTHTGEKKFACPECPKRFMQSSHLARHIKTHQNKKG
In another data set the target is T18, ZFP SBS#965 (synthetic).
T18 chain: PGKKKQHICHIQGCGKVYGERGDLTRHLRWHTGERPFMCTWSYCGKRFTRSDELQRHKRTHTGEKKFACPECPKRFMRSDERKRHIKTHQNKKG
In outline: as §1

The target of another data set is T19, ZFP SBS#966 (synthetic).
T19 chain: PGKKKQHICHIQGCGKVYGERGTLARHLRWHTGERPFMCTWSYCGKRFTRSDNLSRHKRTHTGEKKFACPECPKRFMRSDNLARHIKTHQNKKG
A digest of the protocol: as §1

The target in another data set is T20, ZFP SBS#967 (synthetic).
T20 chain: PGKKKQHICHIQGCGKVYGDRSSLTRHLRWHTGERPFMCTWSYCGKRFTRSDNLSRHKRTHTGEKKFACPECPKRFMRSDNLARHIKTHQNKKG
A digest of the protocol:
as §1

The target in another data set is T21, ZFP SBS#973 (synthetic).
T21 chain: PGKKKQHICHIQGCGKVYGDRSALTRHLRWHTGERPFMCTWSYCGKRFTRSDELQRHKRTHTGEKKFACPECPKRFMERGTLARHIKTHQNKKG
A digest of the protocol: as §1

A further data set concerns the target T22, ZFP SBS#974 (synthetic).
T22 chain: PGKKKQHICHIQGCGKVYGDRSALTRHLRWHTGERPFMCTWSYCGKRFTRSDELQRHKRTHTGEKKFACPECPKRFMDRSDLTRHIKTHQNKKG
A digest of the protocol: as §1

ZFP SBS#962, sequence (P08047 other isoform, or with tags, fused parts or gaps): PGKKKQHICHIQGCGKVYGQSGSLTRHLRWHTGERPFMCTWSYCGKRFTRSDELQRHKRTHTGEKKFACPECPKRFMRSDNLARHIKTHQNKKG
ZFP SBS#911 (synthetic), sequence (chain, as listed by the source): as the sequence (P08047 other isoform, or with tags, fused parts or gaps) above, with R50Q, D52S, E53H, Q55A, N81A, R84Q counted along it
ZFP SBS#436 (synthetic), sequence (chain, as listed by the source): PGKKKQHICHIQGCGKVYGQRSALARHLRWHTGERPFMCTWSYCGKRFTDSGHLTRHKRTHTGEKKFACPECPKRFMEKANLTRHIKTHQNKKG
ZFP SBS#948 (synthetic), sequence (chain, as listed by the source): as the sequence (P08047 other isoform, or with tags, fused parts or gaps) above, with Q20R, G22D, E53V, R78Q, D80S, N81H counted along it
ZFP SBS#931 (synthetic), sequence (chain, as listed by the source): as the sequence (P08047 other isoform, or with tags, fused parts or gaps) above, with Q20R, G22D, S23N, T25A, R50Q, D52S, E53N, Q55V counted along it
ZFP SBS#934 (synthetic), sequence (chain, as listed by the source): as the sequence (P08047 other isoform, or with tags, fused parts or gaps) above, with G22S, S23N, T25A, R50Q, D52G, E53N, N81A, A83T, R84S counted along it

B1: GTGGGCGCC (dsDNA)
DNA 1: GTGGGCGCC
DNA 2: GGCGCCCAC
As to B1, the Kd in the data set with ZFP SBS#970 was found to be 1.86 nM; with ZFP SBS#971, 0.144 nM; with ZFP SBS#972, 1.75 nM.

B2: ATGGAAGAT (dsDNA)
DNA 1: ATGGAAGAT
DNA 2: ATCTTCCAT
As for B2, the equilibrium dissociation constant (Kd) amounted to 0.07 nM in the data set with ZFP SBS#934 and 0.03 nM in the data set with ZFP SBS#910.

B3: ATGGGTGCA (dsDNA)
DNA 1: ATGGGTGCA
DNA 2: TGCACCCAT
Take B3: the dissociation constant Kd with ZFP SBS#935 and in the data set with ZFP SBS#911 was 0.91 nM each time.

B4: GAGGAAGAG (dsDNA)
DNA 1: GAGGAAGAG
DNA 2: CTCTTCCTC
The molecule B4 displayed a Kd in the data set with ZFP SBS#931 of 2 nM.

B5: GACGGCGTA (dsDNA)
DNA 1: GACGGCGTA
DNA 2: TACGCCGTC
As to B5, the dissociation constant Kd with ZFP SBS#435 is 150 nM; in the data set with ZFP SBS#434 it was 152 nM; with ZFP SBS#437, 118 nM; with ZFP SBS#436, 95 nM.

B6: ATGGAAGGG (dsDNA)
DNA 1: ATGGAAGGG
DNA 2: CCCTTCCAT
On to B6, for which the equilibrium dissociation constant (Kd) with ZFP SBS#932 was 797 nM; with ZFP SBS#903, 1.03 nM.

B7: CTGGCAGTG (dsDNA)
DNA 1: CTGGCAGTG
DNA 2: CACTGCCAG
Turning to B7, the figures for the equilibrium dissociation constant (Kd) with ZFP SBS#978 and with ZFP SBS#977 were 1.58 nM and 0.017 nM, respectively.

B8: CAGGTAGAT (dsDNA)
DNA 1: CAGGTAGAT
DNA 2: ATCTACCTG
B8 displayed a Kd in the data set with ZFP SBS#929 of 1.3 nM.

B9: GAGGCCGCA (dsDNA)
DNA 1: GAGGCCGCA
DNA 2: TGCGGCCTC
B9: the Kd with ZFP SBS#968 was 1.4 nM; with ZFP SBS#969, 0.275 nM.

B10: GACGAGGAA (dsDNA)
DNA 1: GACGAGGAA
DNA 2: TTCCTCGTC
Turning to B10, in the data set with ZFP SBS#933, the dissociation constant Kd worked out at 500 nM.

B11: CAGGCCGCT (dsDNA)
DNA 1: CAGGCCGCT
DNA 2: AGCGGCCTG
Turning to B11, the Kd with ZFP SBS#976 came out at 4.12 nM; with ZFP SBS#975, 1.1 nM.

B12: CAGGTTGAG (dsDNA)
DNA 1: CAGGTTGAG
DNA 2: CTCAACCTG
In the case of B12, the figures for the Kd in the data set with ZFP SBS#928 and in the data set with ZFP SBS#927 were 25 nM and 3.61 nM, respectively.

B13: GAGGCGGCA (dsDNA)
DNA 1: GAGGCGGCA
DNA 2: TGCCGCCTC
On to B13, for which the dissociation constant (Kd) with ZFP SBS#962 and with ZFP SBS#963 was 0.015 nM each time.

B14: GGTGCGGTG (dsDNA)
DNA 1: GGTGCGGTG
DNA 2: CACCGCACC
For B14, the Kd in the data set with ZFP SBS#946 worked out at 0.027 nM; in the data set with ZFP SBS#945 it was 0.027 nM; with ZFP SBS#948 it was 0.017 nM; with ZFP SBS#947, 0.013 nM.

B15: GCGGCGGCC (dsDNA)
DNA 1: GCGGCGGCC
DNA 2: GGCCGCCGC
B15: in the data set with ZFP SBS#965, the Kd is 3.1 nM.

B16: GAGGAGGCC (dsDNA)
DNA 1: GAGGAGGCC
DNA 2: GGCCTCCTC
On to B16, for which the Kd with ZFP SBS#966 was found to be 0.028 nM; with ZFP SBS#967 it was 0.055 nM.

B17: GCCGCGGTC (dsDNA)
DNA 1: GCCGCGGTC
DNA 2: GACCGCGGC
As for B17, the dissociation constant (Kd) worked out at 0.6 nM with ZFP SBS#973 and 0.038 nM in the data set with ZFP SBS#974.

The Kd is the concentration at which binding is half-saturated. High values mean a looser complex, low ones a tighter complex.
